The labels stand for the following.
B1: murine anti-hIL-4R alpha monoclonal antibody 81 (antibody, V domains shown)
VH: DVQLQQSGPELLKPGASVKIPCQASGYTFTDYNMDWVKQSHGKNLEWIGNINPNNGGTFYNQKFKGKATLTVDKSSSTAYMELRSLTSEDTAVYYCGRGGLRRRGFMDYWGQGTSVTVSS
VL: QIVLSQSPAILSASPGEKVTMTCRASSSVIYIHWYQQKPGSSPKPWIYAASNLASGVPARFSGSGSGTSYSLTISRVEAEDAATYYCQQWSVNPPTFGGGTKLEIK
notes: Mouse hybridoma antibody purified on ProteinG
B2: murine anti-hIL-4R alpha monoclonal antibody 54 (antibody, V domains shown)
VH: B1 VH with D1E, L12V, Q23K, N44S, N50D, G57N, T58I, F59L, Y60F, M81V
VL: B1 VL with I30S, I32M, V92S
notes: as for B1
B3: murine anti-hIL-4R alpha monoclonal antibody 57 (antibody, V domains shown)
VH: B1 VH with D1E, L12V, Q23K, N44S, N50D, G57N, T58I, F59L, Y60F, M81V
VL: B1 VL with I30S, I32M, V92S
notes: as for B1
B4: murine anti-hIL-4R alpha monoclonal antibody 75 (antibody, V domains shown)
VH: B1 VH with D1E, L12V, Q23K, N44S, N50D, G57N, T58I, F59L, Y60F, M81V
VL: B1 VL with I30S, I32M, V92S
notes: as for B1
B5: murine anti-hIL-4R alpha monoclonal antibody 236 (antibody, V domains shown)
VH: EVQLQQSGPELVKPGASVKIPCKASGYTFTDYNVDWVKQSHGQSLDWIGTINPNNGGILSNQKFKGKATLTVDTSSSTAYMELRSLTSEDTAVYYCGRGGLRRRGFMDYWGQGTSVTVSS
VL: B1 VL with Q36Y, P39A, A54P, V92S
notes: as for B1
B6: murine anti-hIL-4R alpha monoclonal antibody 83 (antibody, V domains shown)
VH: EVQLQQSGPELVKPGASVKIPCKASGYTFTDYNMDWVKQSRGKSLEWIGTINPNNGDTMYNQKFKDKATLTVDKSSTTAYMELRSLTSEDTAVYYCGRGGLRRRGFMDYWGRGTSVTVSS
VL: B1 VL with A50I, S71F, A79V
notes: as for B1
B7: murine anti-hIL-4R alpha monoclonal antibody 228 (antibody, V domains shown)
VH: B1 VH
VL: B1 VL
notes: as for B1
B8: murine anti-hIL-4R alpha monoclonal antibody 88 (antibody, V domains shown)
VH: B1 VH with N50T, K63N, Y80C, E89D
VL: B1 VL
notes: as for B1
B9: murine anti-hIL-4R alpha monoclonal antibody 100 (antibody, V domains shown)
VH: B1 VH with M107L
VL: B1 VL with A50V, A59V
notes: as for B1
B10: murine anti-hIL-4R alpha monoclonal antibody 84 (antibody, V domains shown)
VH: B1 VH with P9R, P14R
VL: B1 VL
notes: as for B1
B11: murine anti-hIL-4R alpha monoclonal antibody 55 (antibody, V domains shown)
VH: B1 VH
VL: B1 VL with A59V
notes: as for B1
B12: murine anti-hIL-4R alpha monoclonal antibody 64 (antibody, V domains shown)
VH: B1 VH with D1E, L12V, P21S, Q23K, N44S, N50T, I51T, F59L, G97A, M107V
VL: B1 VL with I30N, I32L, A50T, V92S
notes: as for B1
B13: murine anti-hIL-4R alpha monoclonal antibody 29 (antibody, V domains shown)
VH: EVQLVESGGGLVKPGGSLKLSCAASGFTFSDYGMHWVRQAPEKGLEWVAYINSGSSKIYHADTVKGRFTISRDNAKNTLFLQMTSLRSEDTAMYYCARFPTVVAARYPMDYWGQGTSVTVSS
VL: DIQMTQTPSSLSASLGDRVTISCRASQDISNYLNWYQQKPDGTVKLLIYFTSRLHSGVPSRFSGGGSGTDYSLTISNLEQEDIATYFCQQGNTLPYTFGGGTKLEIK
notes: as for B1
B14: murine anti-hIL-4R alpha monoclonal antibody 136 (antibody, V domains shown)
VH: B13 VH with N52S, S56T, K57T, H60Y, A75G, F99I, P100S, A105K, P108A
VL: B13 VL with P8A, F50Y, G65S, G91I, T93A, Y96L, G100A, I106L
notes: as for B1
B15: murine anti-hIL-4R alpha monoclonal antibody 120 (antibody, V domains shown)
VH: B13 VH with N52S, S56T, K57T, H60Y, A75G, F99I, P100S, A105K, P108A
VL: B13 VL with P8A, F50Y, G65S, G91I, T93A, Y96L, G100A, I106L
notes: as for B1
B16: murine anti-hIL-4R alpha monoclonal antibody 131 (antibody, V domains shown)
VH: B13 VH with N52S, K57T, H60Y, F99I, P100S, A105K, P108A
VL: B13 VL with P8A, F50Y, G65S, Q90E, G91V, T93M, Y96L, G100A, I106L
notes: as for B1
B17: murine anti-hIL-4R alpha monoclonal antibody 59 (antibody, V domains shown)
VH: EVQLVESGGGLVKPGGSLKLSCAASGFTFSDYGIHWVRQAPDKGLEWVAYIRSDSSIIHYADTVKGRFTISRDNAKNTLFLQMTSLRSEDTAMYYCTRGRDRGYFDYWGQGTTLTVSS
VL: QIVLTQSPALMSASPGEKVTMTCSASSSVSYMYWYQQKPRSSPKPWIYLTSNLASGVPARFSGSGSGTSYSLTISSMEAEDAATYYCQQWTSIPFTFGSGTKLEIK
notes: as for B1
B18: Dupilumab (antibody, V domains shown)
VH: EVQLVESGGGLEQPGGSLRLSCAGSGFTFRDYAMTWVRQAPGKGLEWVSSISGSGGNTYYADSVKGRFTISRDNSKNTLYLQMNSLRAEDTAVYYCAKDRLSITIRPRYYGLDVWGQGTTVTVSS
VL: DIVMTQSPLSLPVTPGEPASISCRSSQSLLYSIGYNYLDWYLQKSGQSPQLLIYLGSNRASGVPDRFSGSGSGTDFTLKISRVEAEDVGFYYCMQALQTPYTFGQGTKLEIKR
B19: humanized anti-hIL-4R alpha monoclonal antibody 228-Hu (antibody, human IgG4 S228P, kappa, V domains shown)
VH: QVQLVQSGAEVKKPGASVKVSCKASGYTFTDYNMDWVRQAPGQNLEWIGNINPNNGGTFYNQKFKGRATLTVDKSASTAYMELSSLRSEDTAVYYCARGGLRRRGFMDYWGQGTLVTVSS
VL: EIVLTQSPATLSLSPGERATLSCRASSSVIYIHWYQQKPGQSPRPWIYAASNLASGVPARFSGSGSGTDYTLTISRLEPEDFAVYYCQQWSVNPPTFGQGTKLEIKR
notes: Humanized, human IgG4 constant region; expressed in HEK293, purified on ProteinA

Positions count from the first letter of the chain named.

The text below walks through data of US20230203172A1 (SHANGHAI MABGEEK BIOTECH, published 2023).

What is called EC50 is the concentration giving half of the maximal effect. The Kd is the free concentration of one partner at which half of the binding sites on the other are occupied at equilibrium, for simple one-to-one binding. Higher therefore signals lower affinity. By koff is commonly meant the first-order rate constant of dissociation. A high value points to fast dissociation. What is called kon is a measure of how fast the partners come together. A low value points to slow association.

One experiment concerns the target T1, hIL-4R alpha-ECD-Fc (human, UniProt P24394 26-232).
T1 construct: range 26-232; hFc at the C-terminus of the ECD; also called hIL4R alpha-ECD-hFc; hIL-4R alpha-Fc antigen
In words: ELISA, plate coated with 1 ug/ml hIL-4R alpha-ECD-Fc. The method, then: The titer was tested by ELISA: an ELISA plate was coated with the hIL-4R alpha ECD-Fc antigen at a concentration of 1 μg/ml, 100 μl per well, and coated overnight at 4° C. The plates were washed twice with PBST (PBS containing 0.5% Tween-20) and then pat-dried. Each well was blocked with 200 μl of coating solution containing 1% BSA, blocked at room temperature for 4 h, pat-dried, and stored in a refrigerator at −20° C. for later use. During testing, 100 μl of mouse serum at different concentrations was added to each well of the ELISA plate, with two replicate wells, for incubation at room temperature for 1.5 h. The wells were washed with PBST for 3 times and then pat-dried. Then 100 μl of rabbit anti-mouse IgG labeled with HRP diluted with PBST by 1:10000 (purchased from Sigma) was added and the plates were incubated at room temperature for 1 h. The wells were washed with PBST for 3 times and then pat-dried. Then 100 μl of chromogenic solution was added to each well (an ELISA chromogenic solution A was mixed with a chromogenic solution B at a volume ratio of 1:1 before use) for a chromogenic reaction, and then 100 μl of 2M H2SO4 stopping solution was added to each well to terminate the reaction. The OD value of each well was immediately measured at 450 nm with a microplate reader (Molecular Device).
Optimized murine anti-hIL-4R alpha monoclonal antibodies were purified by a ProteinG affinity chromatography column and quantified by BCA. The EC50 of anti-hIL-4R alpha monoclonal antibodies binding to hIL-4R alpha was tested by ELISA. The testing method is as described in Example 3. An ELISA plate was coated with 1 μg/ml of hIL-4R alpha-ECD-Fc antigen, and then murine anti-hIL-4R alpha monoclonal antibodies at different concentrations were added for testing.
(An ELISA detects its analyte on a solid surface through an enzyme-linked reagent.)
For the molecule B1, the midpoint of the response, the EC50, lay at 0.0096 µg/mL.
Same read-out and setting: next, B2: 0.0099 µg/mL; B3: 0.0079 µg/mL; B4: 0.0129 µg/mL.
Turning to B5, the EC50 amounted to 0.0115 µg/mL.
On the same count and under the same terms, next, B6: 0.0123 µg/mL; B7: 0.0131 µg/mL.
For the molecule B8, the EC50 amounted to 0.0091 µg/mL.
On the same count and under the same terms, next, B9: 0.012 µg/mL; B10: 0.0122 µg/mL.
Still for that read-out and setting: next, B11: 0.0089 µg/mL; B12: 0.0106 µg/mL; B13: 0.0076 µg/mL.
With B14, the response was half-maximal at 0.0113 µg/mL (EC50).
The molecule B15 yielded an EC50 of 0.01 µg/mL.
Still for that read-out and setting: next, B16: 0.0138 µg/mL; B17: 0.0117 µg/mL.

The target in a further experiment is human IL-4R alpha on cells (TF-1 cells; human peripheral blood mononuclear cells) (human, UniProt P24394 26-825). In words: cell-based or functional assay.
Consider B1, for which the “IC50 (ng/ml), inhibition of IL-4-induced TF-1 proliferation” value (“IC50 (ng/ml), inhibition” below) is 24.6 ng/mL.
B2: the “IC50 (ng/ml), inhibition” value was determined as 57 ng/mL.
Same read-out and setting: with B3 the figure was 23.6 ng/mL.
For the molecule B4, the “IC50 (ng/ml), inhibition” value worked out at 29 ng/mL.
On the same count and under the same terms, with B5 the figure was 22.4 ng/mL; with B6, 36.6 ng/mL; with B7, 34.2 ng/mL.
Still for that read-out and setting: next, B8: 67.2 ng/mL.
On the same count and under the same terms, next, B9: 53.7 ng/mL; B10: 31.3 ng/mL.
As for B11, the “IC50 (ng/ml), inhibition” value is 19 ng/mL.
As to B12, the “IC50 (ng/ml), inhibition” value worked out at 43.7 ng/mL.
Consider B13, for which the “IC50 (ng/ml), inhibition” value was 65.3 ng/mL.
On to B14, for which the “IC50 (ng/ml), inhibition” value was 49.6 ng/mL.
In the case of B15, the “IC50 (ng/ml), inhibition” value turned out to be 59.7 ng/mL.
On the same count and under the same terms, next, B16: 47.1 ng/mL; B17: 43.7 ng/mL.

A further experiment deals with T2, hIL-4R alpha-ECD-Flag (human, UniProt P24394 26-232).
T2 construct: range 26-232; Analyte of the Biacore experiment
In words: SPR, Biacore T200, antibody captured on Protein-A chip, hIL-4R alpha-ECD-Flag as analyte. The method, then:
The affinity of six purified humanized antibodies was detected by Biacore T200 (GE healthcare), with the reference antibody Dupilumab as a control. The specific experimental method was as follows: a Protein-A CMS sensor chip (GE healthcare) was used, with FC1 (Flow cell 1) as a reference channel, and FC2 (Flow cell 2) as a sample channel. Humanized antibodies or control antibody were captured in the FC2 channel, and then hIL-4R alpha-ECD-Flag at different concentrations was injected. Cycling conditions were as follows: an analyte was injected into all channels of FCs at 50 μl/min for 4 min, with a dissociation time of 20 min, and 6M guanidine hydrochloride (Sinopharm Chemical Reagent Co., Ltd.) was injected at a rate of 10 μl/min for 30 s for surface regeneration. Then, signal differences and affinity for interaction between captured antibodies and non-captured antibodies were calculated by Biacore T200 Evaluation Software Ver 1.0.
On the technique in general: SPR reads the build-up and loss of mass on a sensor chip optically.
Molecule B18 came in with a Kd of 403 pM, a koff of 0.00018 s⁻¹ and a kon of 446000 M⁻¹ s⁻¹.
Molecule B19 had a dissociation constant Kd of 912 pM, a koff of 0.000658 s⁻¹ and a kon of 721000 M⁻¹ s⁻¹.
